From PMC6726451 (Science Advances, 2019)

Key:
SEC = biological target: the molecule itself; test: SEC
SEC-MALS = biological target: the molecule itself; test: SEC-MALS

B1: caseinolytic protease ClpP from Thermus thermophilus (TtClpP) (enzyme)
chain: not shown
SEC
  stoichiometry N: 7
SEC-MALS
  stoichiometry N: 14
